Test results as given in US20200277405A1, “COMPOSITION FOR ANTIBODY-DRUG CONJUGATE DIRECTED AGAINST TUMOR-CELL ASSOCIATED POLYSIALIC ACID” (Cornell University, priority 2019, published 2020).

B1: mo735: well-known mouse-derived IgG2a monoclonal antibody 735 targeting polysialic acid (antibody, V domains shown)
VH: QIQLQQSGPELVRPGASVKISCKASGYTFTDYYIHWVKQRPGEGLEWIGWIYPGSGNTKYNEKFKGKATLTVDTSSSTAYMQLSSLTSEDSAVYFCARGGKFAMDYWGQGTSVTVSS
VL: DVVMTQTPLSLPVSLGDQASISCRSSQSLVHSNGNTYLYWYLQKPGQSPKPLIYRVSNRFSGVPDRFSGSGSGTDFTLKISRVEAEDLGVYFCFQGTHVPYTFGGGTRLEIK
B2: ch735: chimeric human IgG1 polySia-specific mAb made by swapping variable regions of mouse mAb 735 (antibody, V domains shown)
VH: QIQLQQSGPELVRPGASVKISCKASGYTFTDYYIHWVKQRPGEGLEWIGWIYPGSGNTKYNEKFKGKATLTVDTSSSTAYMQLSSLTSEDSAVYFCARGGKFAMDYWGQGTSVTVSS
VL: DVVMTQTPLSLPVSLGDQASISCRSSQSLVHSNGNTYLYWYLQKPGQSPKPLIYRVSNRFSGVPDRFSGSGSGTDFTLKISRVEAEDLGVYFCFQGTHVPYTFGGGTRLEIK

Legend:
Format in all cases: cell-based, human
[1] = tested on: ST8SiaII KO SW2 cells; assay: Flow cytometry binding to ST8SiaII knockout cells
From the text: (§1) FIGS. 8A-8C depict binding of polySia-specific mAb to ST8SiaII and ST8SiaIV knockout cell lines. […] Data are the geometric mean fluorescence intensity (MFI), with the values reported as the average of three replicates and the error represented as the standard deviation of the mean. […] In the ST8SiaII KO SW2 cells, 73% of the population (FL1-H-) binds mo735 below the level of the wild-type SW2 cells. […] In the ST8SiaIV KO SW2 cells, 68% of the population (FL1-H-) binds mo735 below the level of the wild-type SW2 cells.
(§2) CRISPR guide RNAs targeting ST8SiaII (crRNA1: […]; SEQ ID NO: 5) and ST8Sia4 (crRNA1: […]; SEQ ID NO: 6) were purchased from Genscript in the pLentiCRISPR v2 vector. Knockout cell lines were generated in SW2 cells using protocols described by Zhang and colleagues (Shalem et al., “Genome-Scale CRISPR-Cas9 Knockout Screening in Human Cells,” Science 343:84-7 (2014), which is hereby incorporated by reference in its entirety). Briefly, after lentiviral transduction, cells were maintained under selection with 1 μg/mL puromycin for at least 14 days prior to analysis by flow cytometry.
(§3) Cancer cells were trypsinized and collected with media, followed by three washes in PBS. […] Cells were washed three times, resuspended in 500 μL of 0.5% BSA in PBS, and analyzed on a BD FACSCalibur flow cytometer using Cell Quest Pro software (BD Biosciences).

[2] = tested on: ST8SiaIV KO SW2 cells; assay: Flow cytometry binding to ST8SiaIV knockout cells
From the text: as §1, §2, §3

[3] = tested on: polySia-positive cell lines SH-SY5Y, SW2, H69, and H82; assay: Internalization assay, polySia-positive cell lines; settings: after 1 h at 37° C.; each polySia-positive cell line
Protocol: (§4) FIGS. 10A-10E depict internalization of ch735 into polySia-positive cancer cells. […] Nuclei were stained by Hoescht (blue). Scale bar, 10 Fluorescence intensity was measured across the dotted line and normalized to the maximum value in each channel. Arrows indicate regions of colocalization. […] Nuclei were stained by Hoescht. Scale bar, 10 Fluorescence intensity was measured across the dotted line and normalized to the maximum value in each channel. Arrows indicate regions of colocalization. The inset show only the ch735 and DNA channels of the boxed region. […] Scale bar, 10 Fluorescence intensity was measured across the dotted white line and normalized to the maximum value in each channel. […]
To calculate percent internalization, pre-chilled cells were incubated with 50 nM ch735 on ice for 1 h and then washed to remove unbound antibodies. […] Cells were fixed in 2% paraformaldehyde for 20 min and then stained with AF488-labeled antibody against human IgG and analyzed by flow cytometry and FlowJo software. Receptor-antibody complex internalization was calculated using the geometric mean as percent fluorescent intensity loss at 37° C. relative to that on ice. For each sample, the geometric mean fluorescence intensity (MFI) of 10,000 cells was measured in triplicate.

[4] = tested on: SH-SY5Y cells; assay: Colocalization microscopy, SH-SY5Y; settings: transferrin, LAMP-3, LAMP-1 markers
Protocol: as §4
FIGS. 12A-12C depict colocalization of mo735 with markers that traffic to endolysosomal compartments. […] Following fixation and permeabilization, LAMP-1 antibody was applied and detected with anti-rabbit AF647 secondary. […] Cross-sectional fluorescence profiles are shown at right with normalized pixel intensity for selected cells (marked with box in left confocal panels) versus distance across the cell for representative cross sections (marked with bar in right confocal panels).
SH—SY5Y or SW2 cells were plated at 20,000 cells/cm^2 on poly-L-lysine coated 35 mm glass bottom dishes and adhered overnight. […] The fluorescence intensity of the plot profile was analyzed using FIJI software. […]

Molecule | population (FL1-H-) binding below the level of wild-type SW2 cells [1] [%] | population (FL1-H-) binding below the level of wild-type SW2 cells [2] [%] | antibody internalized [3] [%] | compartments of accumulation after internalization (confocal) [4]
B1 | 73 | 68 | – | –
B2 | – | – | ~40 | rapidly internalized in endosomal/lysosomal compartments
